This note sets out measurements from patent US20130052663A1 (ADDEX PHARMA SA, priority 2010, published 2013).

Assay [1] addresses chimeric receptor TNFR1(fl)-PDGFR(cd): full length human TNFR1 fused to the cytoplasmic tyrosine kinase domain of mouse PDGFR (human TNFR1 / mouse PDGFR). Kind of assay: cell-based or functional assay.
The target of assay [2] is T1, chimeric TNFR1-PDGFR Receptor (Homo sapiens, UniProt P19438).
T1 construct: yielding the expression construct pcDNA3.1 hygro TNFR1(fl)-PDGFR(cd) vector; mouse PDGFRb cytoplasmic tyrosine kinase domain (fusion partner); expressed in transfected cells; host or cells: HEK293T cells stably expressing apoaequorin
Briefly: Ca2+-dependent aequorin luminescence in HEK293T Aequorin cells expressing chimeric TNFR1(fl)-PDGFR(cd) receptor, HTS setting. As to conditions: for Effect on TNF-dependent intracellular calcium increase (luminescence AUC): 1 μM inhibitor, 3 ng/ml TNF. The assay is classed as cell-based, human TNFR1 / mouse PDGFR. The source says:
HEK293T stably expressing Apoaequorin were generated using standard cloning techniques. The HEK293T cells expressing Apoaequorin (“Aequorin cells”) were then further transfected as described in Examples 1-3 so as to express the chimeric receptors 1-3 as listed in Table 3.
In particular, the HEK293T Apoaequorin cells were transfected with pcDNA3.1 hygro TNFR1-fl-PDGFR-cd vector as prepared in Example 1 using Optifect™ Transfection Reagent (Invitrogen), according to the manufacturer's protocol.
HEK293T cells expressing Apoaequorin and the chimeric receptor (Example 4) were plated in 384-well plates at a concentration of 12500 cells per well in a final volume of 50 μl. The next day culture supernatants were removed and 25 μl labeling buffer (DMEM:F12 plus 0.1% BSA) containing 2.5 μM Coelenterazine h (Dalton Pharma services), was added. Cells were incubated at room temperature for 6 hrs. A FDSS7000 reader from Hamamatsu (Japan) was used to examine intracellular calcium levels. […] The instrument features include detection with a camera of fluorescence or luminescence and automatically converts fluorescence or luminescence signals into numeric data. This digital data is then used to determine the concentration of calcium inside the analyzed cells. The information is automatically analyzed in terms of a positive, negative or null effect of each test compound being examined. This system allowed differences between untreated and treated cells to be measured, for example by measuring the calcium flux in cells.
After a baseline reading of 10 seconds, cells were incubated for 3 minutes with different doses of inhibitors or buffer controls. […] The results were analyzed using the FDSS analysis software from Hamamatsu. […]
HEK293T Aequorin cells expressing fusion proteins as described in Example 4 were treated or not treated with 3 ng/ml of TNF and 300 ng/ml of an anti-TNFR1 antagonist monoclonal antibody (MAB225, R&D Systems) was added to half of the samples exposed to TNF. Following 10 minutes of exposure after TNF addition, the area under the curve was determined for each sample. […]
(In general: Calcium flux is commonly read through the fluorescence of an indicator in the cells.)

T1 sequence (P19438 with tags, fused parts or gaps): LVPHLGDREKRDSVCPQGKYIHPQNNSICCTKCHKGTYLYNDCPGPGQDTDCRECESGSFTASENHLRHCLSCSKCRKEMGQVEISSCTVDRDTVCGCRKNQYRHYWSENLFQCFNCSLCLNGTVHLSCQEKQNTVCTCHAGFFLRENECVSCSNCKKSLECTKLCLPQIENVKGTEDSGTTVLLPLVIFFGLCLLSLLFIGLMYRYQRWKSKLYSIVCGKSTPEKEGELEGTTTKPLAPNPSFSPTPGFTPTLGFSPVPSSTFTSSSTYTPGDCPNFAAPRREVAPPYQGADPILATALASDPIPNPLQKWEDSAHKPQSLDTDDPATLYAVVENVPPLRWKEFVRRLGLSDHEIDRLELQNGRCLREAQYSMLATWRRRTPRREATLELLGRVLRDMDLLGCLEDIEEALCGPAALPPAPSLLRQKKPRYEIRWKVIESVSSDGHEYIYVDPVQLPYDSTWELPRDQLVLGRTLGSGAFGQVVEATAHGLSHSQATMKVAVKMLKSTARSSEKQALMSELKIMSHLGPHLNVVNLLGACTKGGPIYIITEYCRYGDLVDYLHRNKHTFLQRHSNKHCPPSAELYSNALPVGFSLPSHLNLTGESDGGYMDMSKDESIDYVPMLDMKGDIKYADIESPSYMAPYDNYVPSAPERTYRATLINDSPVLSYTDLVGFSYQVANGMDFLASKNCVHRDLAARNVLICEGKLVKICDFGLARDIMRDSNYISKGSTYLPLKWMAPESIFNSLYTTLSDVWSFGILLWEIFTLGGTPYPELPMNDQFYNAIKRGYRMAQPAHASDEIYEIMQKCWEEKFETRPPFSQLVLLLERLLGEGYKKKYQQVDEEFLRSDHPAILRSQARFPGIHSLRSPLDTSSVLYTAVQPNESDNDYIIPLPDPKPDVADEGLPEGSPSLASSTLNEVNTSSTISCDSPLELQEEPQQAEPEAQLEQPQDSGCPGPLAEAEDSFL

In assay [1], Tumor necrosis factor (TNF) (ligand) showed an EC50, Ca2+-dependent aequorin luminescence, AUC over 10 minutes of 1.27 ng/mL; an EC50, Ca2+-dependent aequorin luminescence, Max-Min of 1.06 ng/mL; an EC80, Ca2+-dependent aequorin luminescence, AUC over 10 minutes of 2.9 ng/mL; an EC80, Ca2+-dependent aequorin luminescence, Max-Min of 3 ng/mL.

With `COc1cc2ncnc(N3CCN(C(=O)Nc4ccc(Oc5ccccc5)cc4)CC3)c2cc1OC` [PDGFR Tyrosine Kinase Inhibitor III, 4-(6,7-Dimethoxy-4-quinazolinyl)-N-(4-phenoxyphenyl)-1-piperazinecarboxamide], the “Effect on TNF-dependent intracellular calcium increase (luminescence AUC)” value in assay [2] was “prevented the detection of intracellular calcium increase”; in assay [2] (listed as PDGFR tyrosine kinase inhibitor), “signalling is blocked”. Further, in assay [2] (inhibitor 3 μM to 0.45 nM, cells exposed to TNF), the “Inhibitory efficacy (dose response), compared with full-length PDGFR cells” value is reported as “equal inhibitory efficacy”.
